This is an account of results in US20240209086A1 (PETMEDIX, published 2024).

Where a chain is given by its changes, count along the chain named.

This assay has as its target canine CD3 on canine T cells (canine PBMC) (canine, UniProt P27597 22-202). The experiment in a line: cell-based or functional assay.

Chain of canine CD3 on canine T cells (canine PBMC) (P27597 22-202 limits assumed, chain 1 of 3): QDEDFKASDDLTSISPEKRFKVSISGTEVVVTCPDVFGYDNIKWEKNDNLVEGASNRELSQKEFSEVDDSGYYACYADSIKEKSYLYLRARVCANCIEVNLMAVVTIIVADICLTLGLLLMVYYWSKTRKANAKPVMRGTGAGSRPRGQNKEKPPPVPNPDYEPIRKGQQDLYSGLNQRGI
Chain of canine CD3 on canine T cells (canine PBMC) (chain, as listed by the source limits assumed, chain 2 of 3): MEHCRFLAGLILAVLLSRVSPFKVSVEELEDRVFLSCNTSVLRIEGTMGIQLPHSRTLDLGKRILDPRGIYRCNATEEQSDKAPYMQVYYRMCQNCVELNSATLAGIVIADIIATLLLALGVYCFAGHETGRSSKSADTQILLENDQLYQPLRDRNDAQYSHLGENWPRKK
Chain of canine CD3 on canine T cells (canine PBMC) (chain, as listed by the source limits assumed, chain 3 of 3): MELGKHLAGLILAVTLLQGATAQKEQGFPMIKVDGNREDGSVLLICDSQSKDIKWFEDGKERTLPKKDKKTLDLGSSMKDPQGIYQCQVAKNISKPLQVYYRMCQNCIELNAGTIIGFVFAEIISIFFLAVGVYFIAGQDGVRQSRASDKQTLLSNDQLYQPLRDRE

B1: PMX157 (monospecific anti-canine CD3, canine IgG-B effector function deficient Fc) (antibody, V domains shown)
VH: ELTLQESGPGLVKPSQTLSLTCVVSGGSVTSSYFWNWIRQRPGRGLEWMGYWTGSTIYSPAFQGRISITPDTAKNQFSLQLSSMTTEDTAVYYCSREGGSTLGAFAYWGQGTLVTVSS
VL: SYVLTQLPSKNVTLKQPAHITCGGDKIGSKSVHWYQQKLGQAPVLIIYYDSSRPTGIPERFSGANSGNTATLTISGALAEDEADYYCQVWDSSAKASVFGGGTHLTVL
Consider B1, for which the “CD25 Activation, Day 6, IS” value was found to be 9.65; the “CD25 Activation, Day 6, PB” value was 11.6; the “CD25 Activation, Day 9, IS” value came to 9.96; the “CD25 Activation, Day 9, PB” value is 8.72. Moreover, the “IFNy Concentration pg/ml, Day 6, IS” value was found to be 44.4 pg/mL; the “IFNy Concentration pg/ml, Day 9, IS” value came out at 209 pg/mL; the “IFNy Concentration pg/ml, Day 9, PB” value turned out to be 3140 pg/mL; the “Ki67 Proliferation, Day 6, IS” value was determined as 1.24. Also, the “Ki67 Proliferation, Day 6, PB” value turned out to be 0.4; the “Ki67 Proliferation, Day 9, IS” value worked out at 0.85; the “Ki67 Proliferation, Day 9, PB” value worked out at 0.34.

B2: PMX167 (monospecific anti-canine CD3, canine IgG-B effector function deficient Fc) (antibody, V domains shown)
VH: EVKLVESGGDLVKPGGSLRLSCMASGFTLNNYYMSWVRQAPGKGLQWVAYIKSGGSDTSYVDAVKGRFTISRDNAKNTLHLQMNSLRVEDTAVYYCATDGYIWAWGQGTLVTVSS
VL: B1 VL with K26N, S51N, N65K, A94S, S97Y, G101S, H104Q
With B2, the “CD25 Activation, Day 6, IS” value stood at 7.09; the “CD25 Activation, Day 6, PB” value stood at 4.93; the “CD25 Activation, Day 9, IS” value came out at 11.6; the “CD25 Activation, Day 9, PB” value was determined as 12.8. The “IFNy Concentration pg/ml, Day 6, IS” value worked out at 63.5 pg/mL; the “IFNy Concentration pg/ml, Day 9, IS” value turned out to be 802 pg/mL; the “IFNy Concentration pg/ml, Day 9, PB” value worked out at 1290 pg/mL; the “Ki67 Proliferation, Day 6, IS” value was 1.55. Also, the “Ki67 Proliferation, Day 6, PB” value was 0; the “Ki67 Proliferation, Day 9, IS” value came out at 2.66; the “Ki67 Proliferation, Day 9, PB” value was 0.25.

B3: PMX177 (monospecific anti-canine CD3, canine IgG-B effector function deficient Fc) (antibody, V domains shown)
VH: EVTLQESGPGLVKPSQTLSLTCVVSGGSVTSSFYWNWIRQRPGRGLEWMGYWTGSTNYNPAFQGRISITADTAKNQFSLHLGSMTTDDTAMYYCAREEGSWGRVYFDYWGQGTLVTVSS
VL: B1 VL with K26N, A94T, A96T, S97W, G101E, H104Q
In the case of B3, the “CD25 Activation, Day 6, IS” value came to 8.02; the “CD25 Activation, Day 6, PB” value worked out at 12.6; the “CD25 Activation, Day 9, IS” value was 13.7; the “CD25 Activation, Day 9, PB” value is 18.4. For the same molecule, the “IFNy Concentration pg/ml, Day 6, IS” value came out at 28.8 pg/mL; the “IFNy Concentration pg/ml, Day 9, IS” value amounted to 763 pg/mL; the “IFNy Concentration pg/ml, Day 9, PB” value amounted to 2210 pg/mL; the “Ki67 Proliferation, Day 6, IS” value amounted to 1.41. For the same molecule, the “Ki67 Proliferation, Day 6, PB” value was 1.37; the “Ki67 Proliferation, Day 9, IS” value came to 3.19; the “Ki67 Proliferation, Day 9, PB” value was 0.47.

B4: PMX176 (monospecific anti-canine CD3, canine IgG-B effector function deficient Fc) (antibody, V domains shown)
VH: EVQLVESGGDLVKPGGSLRLSCVASGFTFSSYHMSWVRQAPGKGLQWVAYINSAGSTTSYTDAVQGRFTISRDNAKNTLYLQMNSLRAEDTAVYYCASEWIFMPWGQGSLVTVSS
VL: B1 VL with K26N, S97R, G101E, H104Q
For the molecule B4, the “CD25 Activation, Day 6, IS” value came out at 10.3; the “CD25 Activation, Day 6, PB” value is 9.61; the “CD25 Activation, Day 9, IS” value turned out to be 12.3; the “CD25 Activation, Day 9, PB” value came out at 10.1. Also, the “IFNy Concentration pg/ml, Day 6, IS” value was 30.3 pg/mL; the “IFNy Concentration pg/ml, Day 9, IS” value was 278 pg/mL; the “IFNy Concentration pg/ml, Day 9, PB” value is 594 pg/mL; the “Ki67 Proliferation, Day 6, IS” value was 0.93. Moreover, the “Ki67 Proliferation, Day 6, PB” value came to 1.45; the “Ki67 Proliferation, Day 9, IS” value turned out to be 2.2; the “Ki67 Proliferation, Day 9, PB” value came out at 0.

B5: PMX170 (monospecific anti-canine CD3, canine IgG-B effector function deficient Fc) (antibody)
heavy: EVQLVESGGDLVKPGGSLRLSCVASGFTFSSYHMSWVRQAPGKGLQWVAYSNSGGSRTSYADAVKGRFTISRDNAKNTLYLQMSSLRAEDTAVYYCASEGGGGRYGFKDYGMDYWGHGTSLFVSSASTTAPSVFPLAPSCGSTSGSTVALACLVSGYFPEPVTVSWNSGSLTSGVHTFPSVLQSSGLYSLSSMVTVPSSRWPSETFTCNVAHPASKTKVDKPVPKRENGRVPRPPDCPKCPAPESLGGPSVFIFPPKPKDTLLIARTPEVTCVVVDLGREDPEVQISWFVDGKQMQTAKTQPREEQFNGTYRVVSVLPIGHQDWLKGKQFTCKVNHIGLPSPIERTISKARGQAHQPSVYVLPPSREELSKNTVSLTCLIKDFFPPDIDVEWQSNGQQEPESKYRTTPPQLDEDGSYFLYSKLSVDKSRWQRGDTFICAVMHEALHNHYTQKSLSHSPGK
VL: B1 VL with K26N, S97W, G101E, H104Q
B5: the “CD25 Activation, Day 6, IS” value was 9.44; the “CD25 Activation, Day 6, PB” value came out at 11.8; the “CD25 Activation, Day 9, IS” value was found to be 7.39; the “CD25 Activation, Day 9, PB” value was 11.3. Besides, the “IFNy Concentration pg/ml, Day 6, IS” value was 71.3 pg/mL; the “IFNy Concentration pg/ml, Day 9, IS” value was found to be 114 pg/mL; the “IFNy Concentration pg/ml, Day 9, PB” value turned out to be 282 pg/mL; the “Ki67 Proliferation, Day 6, IS” value was 1.99. Further, the “Ki67 Proliferation, Day 6, PB” value stood at 0.27; the “Ki67 Proliferation, Day 9, IS” value is 0.79; the “Ki67 Proliferation, Day 9, PB” value was determined as 0.47.

B6: PMX168 (monospecific anti-canine CD3, canine IgG-B effector function deficient Fc) (antibody, V domains shown)
VH: ELTLQESGPGLVKPSQTLSLTCVVSGGSVTRSYYWNWIRQRPGRGLEWMGYWTGTTNYNPAFQGRISITADTAKNQCSLQLSSMTTEDTAVYYCAREGGKLLGAFGHWGQGTLVTVSS
VL: B1 VL
As for B6, the “CD25 Activation, Day 6, IS” value amounted to 7.17; the “CD25 Activation, Day 6, PB” value was 13.4; the “CD25 Activation, Day 9, IS” value worked out at 8.87; the “CD25 Activation, Day 9, PB” value worked out at 6.52. In addition, the “IFNy Concentration pg/ml, Day 6, IS” value was found to be 61.1 pg/mL; the “IFNy Concentration pg/ml, Day 9, IS” value turned out to be 301 pg/mL; the “IFNy Concentration pg/ml, Day 9, PB” value came to 2450 pg/mL; the “Ki67 Proliferation, Day 6, IS” value was found to be 1.57. Further, the “Ki67 Proliferation, Day 6, PB” value worked out at 0.15; the “Ki67 Proliferation, Day 9, IS” value came out at 1.53; the “Ki67 Proliferation, Day 9, PB” value was 0.36.

B7: PMX171 (monospecific anti-canine CD3, canine IgG-B effector function deficient Fc) (antibody)
heavy: B5 heavy with V23E, S51I, S53N, R57G, S84N, Y95F, G103K, F107Y
VL: B1 VL with K26N, S97W, G101E, H104Q
For B7, the “CD25 Activation, Day 6, IS” value was determined as 11.9; the “CD25 Activation, Day 6, PB” value amounted to 13.7; the “CD25 Activation, Day 9, IS” value is 10.4; the “CD25 Activation, Day 9, PB” value was 6.22. Further, the “IFNy Concentration pg/ml, Day 6, IS” value is 106 pg/mL; the “IFNy Concentration pg/ml, Day 9, IS” value was found to be 146 pg/mL; the “IFNy Concentration pg/ml, Day 9, PB” value was found to be 277 pg/mL; the “Ki67 Proliferation, Day 6, IS” value turned out to be 0.98. For the same molecule, the “Ki67 Proliferation, Day 6, PB” value was found to be 0.57; the “Ki67 Proliferation, Day 9, IS” value turned out to be 1.91; the “Ki67 Proliferation, Day 9, PB” value worked out at 0.52.

B8: PMX166 (monospecific anti-canine CD3, canine IgG-B effector function deficient Fc) (antibody, V domains shown)
VH: B1 VH
VL: B1 VL with K26N
In the case of B8, the “CD25 Activation, Day 6, IS” value came out at 11.4; the “CD25 Activation, Day 6, PB” value is 14.5; the “CD25 Activation, Day 9, IS” value came to 9.15; the “CD25 Activation, Day 9, PB” value worked out at 22. In addition, the “IFNy Concentration pg/ml, Day 6, IS” value is 67.6 pg/mL; the “IFNy Concentration pg/ml, Day 9, IS” value came to 112 pg/mL; the “IFNy Concentration pg/ml, Day 9, PB” value came to 2780 pg/mL; the “Ki67 Proliferation, Day 6, IS” value amounted to 2.77. Besides, the “Ki67 Proliferation, Day 6, PB” value was 0.95; the “Ki67 Proliferation, Day 9, IS” value was 0.92; the “Ki67 Proliferation, Day 9, PB” value amounted to 1.28.

B9: PMX174 (monospecific anti-canine CD3, canine IgG-B effector function deficient Fc) (antibody)
heavy: EVQLVESGGDLVKAGVSLRLSCVASGFTFSNYHLNWVRQAPGKGPQWVASINSGGSSTYYADAVKGRFTISRDNAKNTLYLQMNSLRAEDTAVYYCASDHGSYRGMDYWGHGTSLFVSSASTTAPSVFPLAPSCGSTSGSTVALACLVSGYFPEPVTVSWNSGSLTSGVHTFPSVLQSSGLYSLSSMVTVPSSRWPSETFTCNVAHPASKTKVDKPVPKRENGRVPRPPDCPKCPAPESLGGPSVFIFPPKPKDTLLIARTPEVTCVVVDLGREDPEVQISWFVDGKQMQTAKTQPREEQFNGTYRVVSVLPIGHQDWLKGKQFTCKVNHIGLPSPIERTISKARGQAHQPSVYVLPPSREELSKNTVSLTCLIKDFFPPDIDVEWQSNGQQEPESKYRTTPPQLDEDGSYFLYSKLSVDKSRWQRGDTFICAVMHEALHNHYTQKSLSHSPGK
VL: SYVLTQLPSKNVTLKQPAHITCGGDNIGSKSVHWYQQKLGQAPVLIIYYDSSRPTGIPERFSGANSGNTATLTISGALAEDEADYYCQVWDSSAKAVFGGGTHLTVL
B9: the “CD25 Activation, Day 6, IS” value was found to be 7.37; the “CD25 Activation, Day 6, PB” value came out at 8.61; the “CD25 Activation, Day 9, IS” value is 8.21; the “CD25 Activation, Day 9, PB” value came to 8.48. Further, the “IFNy Concentration pg/ml, Day 6, IS” value was determined as 17.4 pg/mL; the “IFNy Concentration pg/ml, Day 9, IS” value was 627 pg/mL; the “IFNy Concentration pg/ml, Day 9, PB” value amounted to 591 pg/mL; the “Ki67 Proliferation, Day 6, IS” value amounted to 0.95. Also, the “Ki67 Proliferation, Day 6, PB” value worked out at 0.089; the “Ki67 Proliferation, Day 9, IS” value stood at 1.03; the “Ki67 Proliferation, Day 9, PB” value was found to be 0.

B10: PMX175 (monospecific anti-canine CD3, canine IgG-B effector function deficient Fc) (antibody, V domains shown)
VH: ELTLQESGPGLVKPSQTLSLTCVVSGGSVTSTYYWNWIRQRPGRGLEWMGYWTGTTNYNPAFQGRISITADTAKNQFSLQLSSMTTEDTAVYYCAREDLVTVGSGAFNYWGQGTLVTVSS
VL: B9 VL with K95T, A96W, G100E, H103Q
Turning to B10, the “CD25 Activation, Day 6, IS” value was 14.5; the “CD25 Activation, Day 6, PB” value came out at 8.76; the “CD25 Activation, Day 9, IS” value was 10; the “CD25 Activation, Day 9, PB” value stood at 9.46. Moreover, the “IFNy Concentration pg/ml, Day 6, IS” value amounted to 51 pg/mL; the “IFNy Concentration pg/ml, Day 9, IS” value was found to be 233 pg/mL; the “IFNy Concentration pg/ml, Day 9, PB” value stood at 706 pg/mL; the “Ki67 Proliferation, Day 6, IS” value was determined as 2.03. The “Ki67 Proliferation, Day 6, PB” value turned out to be 0.59; the “Ki67 Proliferation, Day 9, IS” value turned out to be 1; the “Ki67 Proliferation, Day 9, PB” value turned out to be 0.95.
